Bridge positions count the residues as written; N and C are the ends. Square brackets hold non-standard residues; d marks the D form. R‑13 = (R)-2-(2'-pentenyl)alanine; R‑14 = (R)-2-(2′-hexenyl)alanine; S‑14 = (S)-2-(2′-hexenyl)alanine; S‑16 = (S)-2-(2′-octenyl)alanine
How the values were obtained:
[1] = Circular dichroism measure of helical content; assay type: physicochemical
Experimental: Circular dichroism: Circular dichroism spectra were collected on a Jasco J-710 spectropolarimeter at 4° C. A typical sample was prepared by lyophilizing a measured volume of peptide solution and then resuspending it in 3 ml of 0.1% TFA in water to obtain a solution with a 280 nm absorbance of approximately 0.06 absorbance units. The sample was placed in a 1 cm CD cuvette and the ultraviolet absorbance was measured. The circular dichroism spectrum was measured and a baseline CD spectrum of 0.1% TFA in water was subtracted from it. The baseline subtracted CD spectrum was then normalized using the 280 nm absorbance.

[2] = test system: trypsin; assay: Peptide trypsin digest (cleavage rate constants); assay type: in vitro ADME; conditions: 10% EtOH in 50 mM Tris pH 8.3, room temperature; for Cleavage rate constant, Unmetathesized: unmetathesized peptide; for Cleavage rate constant, Metathesized and hydrogenated: metathesized and hydrogenated peptide
Experimental: Peptide trypsin digest: A typical peptide trypsin digest experiment was performed by adding 5 μL of a 20× trypsin solution in 1 mM HCl to a 100 μL solution of peptide at 9 μM in 10% EtOH in 50 mM Tris at pH 8.3. The reaction was allowed to proceed at room temperature for 30 min at which time it was quenched by adding 100 μL of a 1% trifluoroacetic acid solution and frozen on dry ice. The sample was then thawed and injected into a reverse phase HPLC on a C18 column for quantitation at 280 nm. The cleavage rate constants were obtained by performing the digest experiments at multiple trypsin concentrations and fitting to a kinetic model that is first order in both enzyme and substrate concentration.

[3] = Sedimentation equilibrium (analytical centrifugation); assay type: physicochemical; conditions: conditions of the circular dichroism experiments, 4° C.
Experimental: Analytical centrifugation: Sedimentation Equilibrium Experiments were performed on a Beckman Optima XL-A analytical centrifuge. The samples were centrifuged at 35,000 RPM at 4° C. and monitored at 280 nm. The data was fit to a single species model. The sedimentation equilibrium experiments were run on the identical samples from which circular dichroism spectra were recorded.

[4] = crosslinked versus corresponding uncrosslinked modified peptide

Row | Substance | Cleavage rate constant, Unmetathesized [2] | decrease of helical content following RCM [1, 4] | Cleavage rate constant, Metathesized and hydrogenated [2] | further results
1 | Ac-EWAETAAAKFLAAHA-NH2 [Control, reference compound] | 2.39 M⁻¹ s⁻¹ | – | – | helical content (α-helicity) ([1]; circular dichroism, water containing 0.1% trifluoroacetic acid, 4° C.): ~40%; Cleavage rate constant, Unmetathesized ([2]; listed as unmodified control peptide): 2.38 M⁻¹ s⁻¹
2 | Ri,i+7S(10): Ac-EWAEyAAAKFLzAHA-NH2 (SEQ ID NO: 2), (y,z) = (R-14,S-14), 10 carbon crosslink (Ac-EWAE[R‑14]AAAKFL[S‑14]AHA-NH2; staple 5-12) | – | 12% | 0.34 M⁻¹ s⁻¹ | –
3 | Ri,i+7S(12): Ac-EWAEyAAAKFLzAHA-NH2 (SEQ ID NO: 2), (y,z) = (R-14,S-16), 12 carbon crosslink; cis and trans isomers (Ac-EWAE[R‑14]AAAKFL[S‑16]AHA-NH2; staple 5-12; also: cis and trans olefin isomers) | – | – | 0.12 M⁻¹ s⁻¹ | –
4 | Ri,i+7S(11): Ac-EWAEyAAAKFLzAHA-NH2 (SEQ ID NO: 2), (y,z) = (R-13,S-16), 11 carbon crosslink (Ac-EWAE[R‑13]AAAKFL[S‑16]AHA-NH2; staple 5-12) | 0.50 M⁻¹ s⁻¹ | – | 0.058 M⁻¹ s⁻¹ | oligomeric state by sedimentation equilibrium [3]: monomeric; helix stabilization (result in words) ([1]; circular dichroism): best helix stabilizer; increase of helical content following RCM ([1]; crosslinked versus corresponding uncrosslinked modified peptide, for Ri,i+7S(12) cis and trans double bond isomers): 26%; increase of helical structure compared to unmodified control peptide ([1]; versus unmodified control peptide): 44%
5 | Ri,i+7S(9): Ac-EWAEyAAAKFLzAHA-NH2 (SEQ ID NO: 2), (y,z) = (R-13,S-14), 9 carbon crosslink (Ac-EWAE[R‑13]AAAKFL[S‑14]AHA-NH2; staple 5-12) | – | 21% | 0.37 M⁻¹ s⁻¹ | –

— patent US10487110B2, “Stabilized compounds having secondary structure motifs” (President and Fellows of Harvard College, priority 1999, dated 2019)
